Laboratory results: patent US11325966

Columns and labels:
Assay in all cases: cell-based or functional assay
[1] = molecular target: HIV-1 Env of pseudovirus X2131_C1_B5 (HIV-1)
[2] = molecular target: HIV-1 Env of pseudovirus CAAN5342.A2 (HIV-1)
[3] = molecular target: HIV-1 Env of pseudovirus R2184.c04 (HIV-1)
[4] = molecular target: HIV-1 Env of pseudovirus CNE21 (HIV-1)
[5] = molecular target: HIV-1 Env of pseudovirus 1056_10_TA11_1826 (HIV-1)
[6] = molecular target: HIV-1 Env of pseudovirus Ce0393_C3 (HIV-1)
[7] = molecular target: HIV-1 Env of pseudovirus REJO4541.67 (HIV-1)
[8] = molecular target: HIV-1 Env of pseudovirus 1012_11_TC21_3257 (HIV-1)
[9] = molecular target: HIV-1 Env of pseudovirus CNE53 (HIV-1)
[10] = molecular target: HIV-1 Env of pseudovirus ZM233M.PB6 (HIV-1)
[11] = molecular target: HIV-1 Env of pseudovirus Ce2060_G9 (HIV-1)
[12] = molecular target: HIV-1 Env of pseudovirus HIV-001428-2.42 (HIV-1)
[13] = molecular target: HIV-1 Env of pseudovirus 231965.c01 (HIV-1)
[14] = molecular target: HIV-1 Env of pseudovirus PVO.4 (HIV-1)
[15] = molecular target: HIV-1 Env of pseudovirus A07412M1.vrc12 (HIV-1)
[16] = molecular target: HIV-1 Env of pseudovirus 191084 B7-19 (HIV-1)
[17] = molecular target: HIV-1 Env of pseudovirus BJOX010000.06.2 (HIV-1)
[18] = molecular target: HIV-1 Env of pseudovirus 62357_14_D3_4589 (HIV-1)
[19] = molecular target: HIV-1 Env of pseudovirus 263-8 (HIV-1)
[20] = molecular target: HIV-1 Env of pseudovirus CNE8 (HIV-1)
[21] = molecular target: HIV-1 Env of pseudovirus SC422661.8 (HIV-1)
[22] = molecular target: HIV-1 Env of pseudovirus T250-4 (HIV-1)
[23] = molecular target: HIV-1 Env of pseudovirus 89-F1_2_25 (HIV-1)
[24] = molecular target: HIV-1 Env of pseudovirus Du422.1 (HIV-1)
[25] = molecular target: HIV-1 Env of pseudovirus X1254_c3 (HIV-1)
[26] = molecular target: HIV-1 Env of pseudovirus ZM214M.PL15 (HIV-1)
[27] = molecular target: HIV-1 Env of pseudovirus Q259.d2.17 (HIV-1)
[28] = molecular target: HIV-1 Env of pseudovirus 1394C9G1(Rev-) (HIV-1)
[29] = molecular target: HIV-1 Env of pseudovirus HIV-16845-2.22 (HIV-1)
[30] = molecular target: HIV-1 Env of pseudovirus RHPA4259.7 (HIV-1)
[31] = molecular target: HIV-1 Env of pseudovirus Ce704809221_1B3 (HIV-1)
[32] = molecular target: HIV-1 Env of pseudovirus T255-34 (HIV-1)
[33] = molecular target: HIV-1 Env of pseudovirus Ce0682_E4 (HIV-1)
[34] = molecular target: HIV-1 Env of pseudovirus Ce2010_F5 (HIV-1)
[35] = molecular target: HIV-1 Env of pseudovirus 6535.3 (HIV-1)
[36] = molecular target: HIV-1 Env of pseudovirus CAP45.2.00.G3 (HIV-1)
[37] = molecular target: HIV-1 Env of pseudovirus C1080.c03 (HIV-1)
[38] = molecular target: HIV-1 Env of pseudovirus ZM53M.PB12 (HIV-1)
[39] = molecular target: HIV-1 Env of pseudovirus 191821_E6_1 (HIV-1)

B1: 10-1074 (antibody, V domains shown)
VH: QVQLQESGPGLVKPSETLSVTCSVSGDSMNNYYWTWIRQSPGKGLEWIGYISDRESATYNPSLNSRVVISRDTSKNQLSLKLNSVTPADTAVYYCATARRGQRIYGVVSFGEFFYYYSMDVWGKGTTVTVSS
VL: SYVRPLSVALGETARISCGRQALGSRAVQWYQHRPGQAPILLIYNNQDRPSGIPERFSGTPDINFGTRATLTISGVEAGDEADYYCHMWDSRSGFSWSFGGATRLTVL
- IC50 in TZM-bl assay [1]: 0.014 mg/L
- IC80 in TZM-bl assay [1]: 0.056 mg/L
- IC50 in TZM-bl assay [2]: 0.005 mg/L
- IC80 in TZM-bl assay [2]: 0.019 mg/L
- IC50 in TZM-bl assay [3]: > 10 mg/L
- IC80 in TZM-bl assay [3]: > 10 mg/L
- IC50 in TZM-bl assay [4]: 0.047 mg/L
- IC80 in TZM-bl assay [4]: 0.124 mg/L
- IC50 in TZM-bl assay [5]: 0.038 mg/L
- IC80 in TZM-bl assay [5]: 0.168 mg/L
- IC50 in TZM-bl assay [6]: > 10 mg/L
- IC80 in TZM-bl assay [6]: > 10 mg/L
- IC50 in TZM-bl assay [7]: > 10 mg/L
- IC80 in TZM-bl assay [7]: > 10 mg/L
- IC50 in TZM-bl assay [8]: 0.011 mg/L
- IC80 in TZM-bl assay [8]: 0.047 mg/L
- IC50 in TZM-bl assay [9]: 0.013 mg/L
- IC80 in TZM-bl assay [9]: 0.058 mg/L
- IC50 in TZM-bl assay [10]: 0.058 mg/L
- IC80 in TZM-bl assay [10]: 0.371 mg/L
- IC50 in TZM-bl assay [11]: > 10 mg/L
- IC80 in TZM-bl assay [11]: > 10 mg/L
- IC50 in TZM-bl assay [12]: 0.035 mg/L
- IC80 in TZM-bl assay [12]: 0.126 mg/L
- IC50 in TZM-bl assay [13]: > 10 mg/L
- IC80 in TZM-bl assay [13]: > 10 mg/L
- IC50 in TZM-bl assay [14]: 0.072 mg/L
- IC80 in TZM-bl assay [14]: 0.252 mg/L
- IC50 in TZM-bl assay [15]: 0.011 mg/L
- IC80 in TZM-bl assay [15]: 0.037 mg/L
- IC50 in TZM-bl assay [16]: 0.026 mg/L
- IC80 in TZM-bl assay [16]: 0.108 mg/L
- IC50 in TZM-bl assay [17]: > 10 mg/L
- IC80 in TZM-bl assay [17]: > 10 mg/L
- IC50 in TZM-bl assay [18]: > 10 mg/L
- IC80 in TZM-bl assay [18]: > 10 mg/L
- IC50 in TZM-bl assay [19]: 0.416 mg/L
- IC80 in TZM-bl assay [19]: 5.71 mg/L
- IC50 in TZM-bl assay [20]: > 10 mg/L
- IC80 in TZM-bl assay [20]: > 10 mg/L
- IC50 in TZM-bl assay [21]: 0.058 mg/L
- IC80 in TZM-bl assay [21]: 0.368 mg/L
- IC50 in TZM-bl assay [22]: 0.002 mg/L
- IC80 in TZM-bl assay [22]: 0.005 mg/L
- IC50 in TZM-bl assay [23]: > 10 mg/L
- IC80 in TZM-bl assay [23]: > 10 mg/L
- IC50 in TZM-bl assay [24]: 0.047 mg/L
- IC80 in TZM-bl assay [24]: 0.113 mg/L
- IC50 in TZM-bl assay [25]: 0.063 mg/L
- IC80 in TZM-bl assay [25]: 0.239 mg/L
- IC50 in TZM-bl assay [26]: 0.415 mg/L
- IC80 in TZM-bl assay [26]: 2.97 mg/L
- IC50 in TZM-bl assay [27]: > 10 mg/L
- IC80 in TZM-bl assay [27]: > 10 mg/L
- IC50 in TZM-bl assay [28]: 0.031 mg/L
- IC80 in TZM-bl assay [28]: 0.093 mg/L
- IC50 in TZM-bl assay [29]: 0.727 mg/L
- IC80 in TZM-bl assay [29]: 3.93 mg/L
- IC50 in TZM-bl assay [30]: 0.023 mg/L
- IC80 in TZM-bl assay [30]: 0.083 mg/L
- IC50 in TZM-bl assay [31]: 0.084 mg/L
- IC80 in TZM-bl assay [31]: 0.395 mg/L
- IC50 in TZM-bl assay [32]: > 10 mg/L
- IC80 in TZM-bl assay [32]: > 10 mg/L
- IC50 in TZM-bl assay [33]: > 10 mg/L
- IC80 in TZM-bl assay [33]: > 10 mg/L
- IC50 in TZM-bl assay [34]: > 10 mg/L
- IC80 in TZM-bl assay [34]: > 10 mg/L
- IC50 in TZM-bl assay [35]: 0.007 mg/L
- IC80 in TZM-bl assay [35]: 0.022 mg/L
- IC50 in TZM-bl assay [36]: > 10 mg/L
- IC80 in TZM-bl assay [36]: > 10 mg/L
- IC50 in TZM-bl assay [37]: > 10 mg/L
- IC80 in TZM-bl assay [37]: > 10 mg/L
- IC50 in TZM-bl assay [38]: > 10 mg/L
- IC80 in TZM-bl assay [38]: > 10 mg/L
- IC50 in TZM-bl assay [39]: > 10 mg/L
- IC80 in TZM-bl assay [39]: > 10 mg/L
